Assay [1] concerns the target 6xHis-MBP-ERC1 fusion protein (mouse). Put plainly: rotary shadowing electron microscopy; purified MBP-ERC1 diluted in spraying buffer (100 mM ammonium acetate, 30% glycerol), sprayed onto mica, platinum and carbon coated.
Assay [2] shares this target. The assay can be described thus: static light scattering; purified ERC1 on a Viskotek TDAMax system; data averaged across the protein elution volume; protein purified in 20 mM HEPES pH 7.4, 250 mM NaCl, 0.5 mM TCEP.
The next assay addresses GFP-ERC1 (mouse). The assay can be described thus: Numbers & Brightness; cytoplasm of living COS7 cells expressing GFP-ERC1; brightness compared with monomeric and dimeric GFP; confocal time series of 300 images.

Usually stoichiometry N stands for the number of molecules, sites or subunits per partner or assembly.

Sequence of GFP-ERC1 (Q99MI1 whole entry): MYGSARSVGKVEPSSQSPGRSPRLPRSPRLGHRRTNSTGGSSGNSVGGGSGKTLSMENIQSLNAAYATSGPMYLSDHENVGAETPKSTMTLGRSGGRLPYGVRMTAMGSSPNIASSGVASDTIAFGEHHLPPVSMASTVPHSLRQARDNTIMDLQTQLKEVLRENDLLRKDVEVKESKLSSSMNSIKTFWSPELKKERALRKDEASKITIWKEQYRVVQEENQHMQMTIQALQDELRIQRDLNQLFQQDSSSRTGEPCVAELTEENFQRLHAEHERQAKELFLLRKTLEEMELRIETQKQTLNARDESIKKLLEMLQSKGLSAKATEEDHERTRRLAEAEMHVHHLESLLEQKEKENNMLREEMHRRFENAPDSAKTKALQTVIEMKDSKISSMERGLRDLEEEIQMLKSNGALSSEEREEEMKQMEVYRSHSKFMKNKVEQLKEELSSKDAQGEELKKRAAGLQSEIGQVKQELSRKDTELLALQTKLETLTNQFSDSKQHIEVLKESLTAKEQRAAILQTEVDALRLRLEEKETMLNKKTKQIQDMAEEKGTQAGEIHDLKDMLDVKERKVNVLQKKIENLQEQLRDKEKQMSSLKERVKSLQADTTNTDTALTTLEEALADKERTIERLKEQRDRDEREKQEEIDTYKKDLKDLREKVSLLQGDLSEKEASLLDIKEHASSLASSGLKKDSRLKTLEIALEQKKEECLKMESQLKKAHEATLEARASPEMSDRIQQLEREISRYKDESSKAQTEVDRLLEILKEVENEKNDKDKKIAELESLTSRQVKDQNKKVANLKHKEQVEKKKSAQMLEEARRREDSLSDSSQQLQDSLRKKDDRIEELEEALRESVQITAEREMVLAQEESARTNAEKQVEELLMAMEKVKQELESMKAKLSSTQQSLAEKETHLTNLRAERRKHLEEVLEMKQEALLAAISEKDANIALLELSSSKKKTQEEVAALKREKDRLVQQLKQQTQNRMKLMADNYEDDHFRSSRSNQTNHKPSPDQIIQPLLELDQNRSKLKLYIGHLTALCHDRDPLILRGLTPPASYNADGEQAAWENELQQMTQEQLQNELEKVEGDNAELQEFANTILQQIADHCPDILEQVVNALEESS

In the case of “6xHis-MBP-ERC1 fusion protein (natural protein)”, the stoichiometry N in assay [1] and in assay [2] was 2 throughout.

Turning to GFP-ERC1 (natural protein), in the assay with GFP-ERC1 (mouse), the brightness ratio to monomeric GFP was 2.1 and the stoichiometry N worked out at 2.

The record behind these values is publication PMC6753080.
